In publication PMC8396340 one finds Kd data, which are given here for two sequences.

For the data set, the target named is Transferrin receptor 1 (TfR, CD71) (Homo sapiens) (UniProt P02786). The experiment in a line: flow cytometry cell binding. The conditions noted are these: 5 mM Mg2+, PBS, 4.5 g/L glucose, 5 mM MgCl2, 1 mg/mL BSA, 0.1 mg/mL herring sperm DNA, 30 min on ice (4 C), intact cells. (A flow cytometer gives signals particle by particle.)
Where [1] appears, read: HCT-8T cells (cell line inferred).

Chain of UniProt P02786 (P02786 whole entry): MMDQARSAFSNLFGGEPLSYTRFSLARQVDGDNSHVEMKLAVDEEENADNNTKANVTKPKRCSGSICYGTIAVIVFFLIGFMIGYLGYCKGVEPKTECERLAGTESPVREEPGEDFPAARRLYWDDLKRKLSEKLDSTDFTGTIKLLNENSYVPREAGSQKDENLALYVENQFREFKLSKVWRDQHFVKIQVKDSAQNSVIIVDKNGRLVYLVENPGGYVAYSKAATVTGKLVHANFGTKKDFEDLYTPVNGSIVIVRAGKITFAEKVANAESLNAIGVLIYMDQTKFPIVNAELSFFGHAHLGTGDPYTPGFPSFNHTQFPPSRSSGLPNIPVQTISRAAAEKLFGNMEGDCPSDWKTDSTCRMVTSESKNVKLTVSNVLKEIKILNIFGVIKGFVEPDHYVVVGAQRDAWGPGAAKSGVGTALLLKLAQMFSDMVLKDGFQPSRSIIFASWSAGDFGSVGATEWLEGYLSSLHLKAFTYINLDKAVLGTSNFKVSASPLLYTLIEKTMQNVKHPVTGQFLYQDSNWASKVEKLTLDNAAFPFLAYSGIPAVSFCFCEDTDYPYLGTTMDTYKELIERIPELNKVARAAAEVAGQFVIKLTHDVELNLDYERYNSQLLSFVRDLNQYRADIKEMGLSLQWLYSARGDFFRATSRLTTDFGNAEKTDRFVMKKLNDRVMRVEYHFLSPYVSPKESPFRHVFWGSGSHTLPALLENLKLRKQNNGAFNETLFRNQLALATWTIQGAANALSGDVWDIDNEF

“AAGGAGCAGCGTGGAGGATAGGGATTCTGTTGGTCGGCTGGTTGGTATCCTTAGGGTGTGTCGTCGTGGT [HG1]”: under setting [1], the Kd (as a rule, the free concentration of one partner at which half of the binding sites on the other are occupied at equilibrium, for simple one-to-one binding) amounted to 6.48 nM.
On to “GGATAGGGATTCTGTTGGTCGGCTGGTTGGTATCC [HG1-9]”, for which the Kd came out at 5.4 nM under setting [1], 19.8 nM (HeLa cells) and 11 nM (Jurkat cells).
